Substrate in the series: CCCCCCCCCCCCC/C=C/[C@@H](O)[C@H](CO)NC(=O)CCCCCCCCCCCNc1ccc([N+](=O)[O-])c2nonc12
Kind of series: hydrolysis of NBD-ceramide, reverse-phase HPLC with DAD detector; Michaelis-Menten and Lineweaver-Burk. The class given is biochemical, Amorphophallus muelleri. The following applies: 37 °C, 1 h, pH of the kinetic assay not clearly stated, labelled compound.

B1: AmCDase (A. muelleri neutral ceramidase) (Amorphophallus muelleri) (protein)
chain: MEASSCSRDYKDHDGSFKIWLCVFLDLVLLNGRLVSRSSDYLVGLASYDITGPAADVNMMGYANAEQIVSGVHFRLRARAFIVAEPGGKRVAFVNLDACMASQLVTIKVLERLKTRYGDLYTAENVAISGIHTHAGPGGYLQYVTYIVTSLGFVRQSFDIIVDGIERSIIQAHDNLRPGSIIVNKGELLDAGVNRSPSAYLNNPYDERKKYSYDVDKEMTLLKFVDDEWGPVGSFNWFATHGTSMSRTNSLISGDNKGAAARFMEDWFKQKSTEPAEHDLFRSDDKLNEIPRRVSIIIPRPRENYKNFTQLASSFPATGGERVTSFLSSTQRVRSIFRQGNRPAFVSAFCQSNCGDVSPNVLGAFCIDTGRPCDFNHSTCNGKNELCYGRGPGYPDEFESTRIIGERQLKKAVDLFDTASEQIKGKVDYRHTYINFSQLKVTIPSSNGSEQVVKTCPAAMGFAFAAGTTDGPGAFDFTQGDEKGNPFWRLVRNLLKTPDKVQVECQLPKPILLDTGEMKQPYDWAPSILPLQILRIGQLVILSVPGEFSTMAGRRLRDAVKMMLTSSGNNEFDNNVHIVIAGLTNTYSQYVTTFEEYEIQRYEGASTLYGPHTLSGYIQEFKKLAAALLNKQTVEPGPAPPDLLKKQMSLLPGVVMDAAPLGFNFGDVSDDVPALSKFKEGDKVSATFWSGCPRNDLLTEGTFALVERLNGVDTWVPAYDDDDFSLRFRWSRPSKFSPYSQATIEWRIPKDAPAGVYRLRHSGATKGLIGCINHFTGTSSAFAVR
notes: Ni-NTA and Superdex 200
As to B1, the Km stood at 34.51 µM.
